Consider six molecules from patent US20100004429A1 (Kyowa Kirin, published 2010).

Assay [1] addresses T1, human thrombopoietin receptor (human c-Mpl) (human, UniProt P40238 26-635).
T1 sequence (looked up): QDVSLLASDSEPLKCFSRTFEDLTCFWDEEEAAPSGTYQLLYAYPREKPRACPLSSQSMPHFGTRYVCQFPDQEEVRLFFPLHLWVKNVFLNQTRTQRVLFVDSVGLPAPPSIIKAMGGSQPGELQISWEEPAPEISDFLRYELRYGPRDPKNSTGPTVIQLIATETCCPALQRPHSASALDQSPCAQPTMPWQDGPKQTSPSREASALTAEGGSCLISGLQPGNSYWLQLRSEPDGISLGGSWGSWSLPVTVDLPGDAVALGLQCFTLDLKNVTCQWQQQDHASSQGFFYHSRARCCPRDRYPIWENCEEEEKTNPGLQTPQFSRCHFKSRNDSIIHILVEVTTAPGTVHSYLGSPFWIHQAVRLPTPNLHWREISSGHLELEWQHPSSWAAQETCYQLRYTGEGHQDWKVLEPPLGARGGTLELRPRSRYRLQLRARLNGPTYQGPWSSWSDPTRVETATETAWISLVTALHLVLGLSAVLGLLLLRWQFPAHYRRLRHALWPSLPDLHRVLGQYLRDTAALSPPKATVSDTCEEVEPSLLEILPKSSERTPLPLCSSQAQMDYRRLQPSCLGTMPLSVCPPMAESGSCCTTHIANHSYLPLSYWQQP
Description: cell-based or functional assay.

Assay [2] has as its target T1, human thrombopoietin receptor (human …). The experiment in a line: flow cytometry on FM3A-hMpl cells. As for the experimental part: The binding activity of the anti-human c-Mpl antibodies was assayed by flow cytometry using the hybridoma culture supernatants or purified antibodies in the following manner. The FM3A-hMpl cells or human Mpl expressing FDCP2 cells (FDCP-hMpl) (FEBS, Lett., Oct. 21, 1996, 395 (2-3): 228-34) were used.
Cells (4×10⁵ cells) were suspended in 50 μl of FACS staining medium (2% FBS, 0.1% NaN₃, 1 mM EDTA in PBS) per reaction, 50 μl of the hybridoma culture supernatant or purified human antibody solution (final concentration: 0.1-1 μg/ml) was added, and the reaction was carried out on ice for 30 minutes. After the washing with FACS staining medium, a secondary antibody, the R-phycoerythrin (RPE) labeled goat anti-human Igγ F(ab′) antibody (Cat#2043-09, Southern Biotechnology), was added, and the reaction was carried out again on ice under the light-shielded conditions for 30 minutes, followed by washing again. The cells were suspended in a propidium iodide (PI)-containing FACS staining medium in order to analying binding activities of the antibodies. The analysis was made using the FACS Calibur (Becton Dickinson).
The concentrations of antibodies were prepared at 1, 0.1, and 0.01 μg/ml, and flow cytometry was carried out using FM3A-hMpl cells. The experiment was carried out in accordance with the method described in Example 4. […]

For assay [3] the target is unchanged. The experiment in a line: cell-based or functional assay. This is another data set of the same source.

B1: anti-human c-Mpl agonist antibody 4-49 (IgG1) (antibody, V domains shown)
VH: EEQLVESGGGLVQPGRSLRLSCTASGFTFDDYAMYWVRQVPGKGLEWVSGISWNSGSIGYADSVKGRFTVSRDNAKNSLYLQMNSLRAEDTALYYCAKALWFGEFPHYYGMDVWGQGTTVTVSS
VL: AIQLTQSPSSLSASVGDRVTITCRASQGISSTLAWYQQKPGKAPKLLIYDASSLESGVPSRFSGSGSGTDFTLTISSLQPEDFATYYCQQFNSYPYTFGQGTKLEIKR
For the molecule B1, in assay [1], the “UT7/TPO (Max)” value is over 80%.

B2: anti-human c-Mpl agonist antibody 6-4-50 (IgG1) (antibody, V domains shown)
VH: EVQLVESGGGLVQPGRSLRLSCATSGFTFDNYAMYWVRQAPGKGLEWVSGISWNSGDIGYADSVKGRFTISRDNAKNSLYLQMNSLRAEDTALYYCARDAGFGEFHYGLDVWGQGTTVTVSS
VL: AIQLTQSPSSLSASVGDRVTITCRASQGISSALAWYQQKPGKVPKLLIYDASSLESGVPSRFSGSGSGTDFTLTISSLQPEDFATYYCQQFNSYPWTFGQGTKVEIKR
For the molecule B2, the “UT7/TPO (Max)” value in assay [1] was over 80%.

B3: anti-human c-Mpl agonist antibody 6-5-2 (IgG1) (antibody, V domains shown)
VH: EVQLVECGGGLVQPGRSLRLSCAASGFTFDDYAMHWVRQAPGKGLEWVSGISWNSGSIGYADSVKGRFTISRDNAKNSLYLQMNSLRAEDTALYYCAKPIWFGEWGNYYGMDVWGQGTTVTVSS
VL: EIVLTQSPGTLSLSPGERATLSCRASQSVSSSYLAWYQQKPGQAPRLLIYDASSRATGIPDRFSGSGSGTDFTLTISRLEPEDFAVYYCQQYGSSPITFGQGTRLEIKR
Regarding B3, in assay [1], the “UT7/TPO (Max)” value is over 50%.

B4: anti-human c-Mpl agonist antibody 7-10 (IgG1) (antibody, V domains shown)
VH: EVQLVESGGGLVQPGRSLRLSCAASGFTFDDYAMHWVRQAPGKGLEWVSGISWNSGSIGYADSVKGRFTISRDNAKNSLYLQMNSLRAEDTALYYCAKNLWFGEFRYWYFDLWGRGTLVTVSS
VL: AIQLTQSPSSLSASVGDRVTITCRASQGISSALAWYQQKPGKAPKLLIYDASSLESGVPSRFSGSGSGTDFTLTISSLQPEDFATYYCQQFNSYPLTFGGGTKVEIK
Consider B4, for which, in assay [1], the “UT7/TPO (Max)” value was over 90%.

B5: 7-10G4344uhm light chain mutant 7-10VL_A43V (antibody, V domains shown)
VH: EVQLVESGGGLVQPGRSLRLSCAASGFTFDDYAMHWVRQAPGKGLEWVSGISWNSGSIGYADSVKGRFTISRDNAKNSLYLQMNSLRAEDTALYYCAKNLWFGEFRYWYFDLWGRGTLVTVSS
VL: AIQLTQSPSSLSASVGDRVTITCRASQGISSALAWYQQKPGKVPKLLIYDASSLESGVPSRFSGSGSGTDFTLTISSLQPEDFATYYCQQFNSYPLTFGGGTKVEIK
notes: Mutant light chain combined with the heavy chain of 7-10G4344uhm; human kappa constant region; also called 6-4-50VL substitution product 2
In the case of B5, the binding result in assay [2] is listed as “binds”.

B6: 7-10G4344uhm light chain mutant 7-10VL_Y94F (antibody, V domains shown)
VH: EVQLVESGGGLVQPGRSLRLSCAASGFTFDDYAMHWVRQAPGKGLEWVSGISWNSGSIGYADSVKGRFTISRDNAKNSLYLQMNSLRAEDTALYYCAKNLWFGEFRYWYFDLWGRGTLVTVSS
VL: AIQLTQSPSSLSASVGDRVTITCRASQGISSALAWYQQKPGKAPKLLIYDASSLESGVPSRFSGSGSGTDFTLTISSLQPEDFATYYCQQFNSFPLTFGGGTKVEIK
notes: Human kappa constant region; also called CDR substitution product
For B6, in assay [2], the “binding activity relative to the original 7-10G4344uhm” value is ~0.1 fold of the original level. In assay [3], the “agonistic activity relative to the original 7-10G4344uhm” value is ~0.1 fold of the original level.
